Nine substances from patent US20160039884A1 can be followed below.

Among the targets are integrin receptors; α5 integrin subunit (UniProt P08648); α5β1 integrin (UniProt P08648); αv integrin (UniProt P06756).
What all share (assay): cell-based or functional assay

UniProt P06756, sequence (P06756 31-1048 limits assumed): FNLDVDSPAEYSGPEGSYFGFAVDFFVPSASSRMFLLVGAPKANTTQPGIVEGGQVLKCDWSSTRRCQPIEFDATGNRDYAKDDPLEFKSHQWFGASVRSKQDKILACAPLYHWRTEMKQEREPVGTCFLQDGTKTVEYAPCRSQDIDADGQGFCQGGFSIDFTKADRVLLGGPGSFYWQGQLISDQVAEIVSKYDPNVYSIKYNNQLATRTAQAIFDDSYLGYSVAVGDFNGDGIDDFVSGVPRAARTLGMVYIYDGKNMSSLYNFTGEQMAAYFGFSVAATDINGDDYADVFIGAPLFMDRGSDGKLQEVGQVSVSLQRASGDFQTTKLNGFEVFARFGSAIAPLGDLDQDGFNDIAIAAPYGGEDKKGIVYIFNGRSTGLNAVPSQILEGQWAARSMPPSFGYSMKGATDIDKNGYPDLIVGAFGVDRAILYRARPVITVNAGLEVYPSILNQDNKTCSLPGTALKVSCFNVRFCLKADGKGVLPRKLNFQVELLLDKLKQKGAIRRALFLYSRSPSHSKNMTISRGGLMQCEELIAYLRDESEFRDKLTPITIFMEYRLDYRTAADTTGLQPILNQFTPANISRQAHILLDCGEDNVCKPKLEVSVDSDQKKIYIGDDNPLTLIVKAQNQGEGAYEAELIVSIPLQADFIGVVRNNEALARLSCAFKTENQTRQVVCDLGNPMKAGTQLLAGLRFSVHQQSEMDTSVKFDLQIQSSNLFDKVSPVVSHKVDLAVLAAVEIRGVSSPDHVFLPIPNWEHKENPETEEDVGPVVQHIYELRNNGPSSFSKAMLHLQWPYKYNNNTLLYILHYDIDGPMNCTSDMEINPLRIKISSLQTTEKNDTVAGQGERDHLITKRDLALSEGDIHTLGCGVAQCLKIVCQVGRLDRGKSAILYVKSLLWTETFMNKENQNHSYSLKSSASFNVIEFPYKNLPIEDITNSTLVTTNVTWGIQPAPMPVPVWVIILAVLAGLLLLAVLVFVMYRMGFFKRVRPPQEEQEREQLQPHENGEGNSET

Substance hMPV F protein mutant G330S gave a Fusion (content mixing fusion assay, percent of wild type F) with integrin receptors of 9%.
With hMPV F protein mutant R329D, the Fusion (content mixing fusion assay, percent of wild type F) with integrin receptors came to 13%.
As to “hMPV F protein (wild type, strain NL/1/00), expressed from pCAGGS-F”, the Fusion (content mixing fusion assay, percent of wild type F) in the assay with integrin receptors turned out to be 100%. In the assay with α5 integrin subunit, this substance came in with a reduction of fusion activity (syncytium count) after siRNA knockdown of α5 of 80%. In the assay with α5β1 integrin, this substance registered an inhibition of cell-cell fusion (content-mixing fusion assay) by anti-α5β1 antibody of 80%. Also, in the assay with αv integrin, the inhibition of cell-cell fusion (content-mixing fusion assay) by anti-αv antibody turned out to be 80% and the reduction of fusion activity (syncytium count) after siRNA knockdown of αv was 60%.
hMPV F protein mutant D331R: in the assay with integrin receptors, the Fusion (content mixing fusion assay, percent of wild type F) was 107%.
The substance hMPV F protein mutant D331E showed a Fusion (content mixing fusion assay, percent of wild type F) in the assay with integrin receptors of 118%.
In the assay with integrin receptors, hMPV F protein mutant R329K displayed a Fusion (content mixing fusion assay, percent of wild type F) of 72%.
Still for that read-out and setting: as for hMPV F protein mutant R329A, the figure is 13%; as for hMPV F protein mutant D331A, 58%; as for hMPV F protein mutant G330A, 20%.
